This is an account of results in article PMC6438714.

This test addresses DyLight488-METTL14 (UniProt Q9HCE5). As to the kind of experiment: MST.
Chain of UniProt Q9HCE5 (Q9HCE5 whole entry): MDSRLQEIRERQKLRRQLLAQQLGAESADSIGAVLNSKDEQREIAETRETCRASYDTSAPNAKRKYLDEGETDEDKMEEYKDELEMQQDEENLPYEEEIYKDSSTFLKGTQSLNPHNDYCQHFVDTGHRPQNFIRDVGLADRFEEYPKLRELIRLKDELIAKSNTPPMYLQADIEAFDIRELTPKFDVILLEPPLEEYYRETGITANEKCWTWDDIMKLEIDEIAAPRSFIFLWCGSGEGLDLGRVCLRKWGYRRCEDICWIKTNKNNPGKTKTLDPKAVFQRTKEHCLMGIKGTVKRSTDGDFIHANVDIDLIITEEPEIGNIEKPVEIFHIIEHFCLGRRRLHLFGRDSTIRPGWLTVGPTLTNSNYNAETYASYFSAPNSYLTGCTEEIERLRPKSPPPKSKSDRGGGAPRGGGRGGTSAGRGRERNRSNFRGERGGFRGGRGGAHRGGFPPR

Broadly, the Kd is the equilibrium constant for the complex coming apart. Read a high Kd as a looser complex. On to “full length H3K36me3 (from UniProt P68431 1-136) (natural protein)”, for which the Kd is 1.86 µM.
